According to patent publication US20120135923A1, “Use of Melanocortins to Treat Dyslipidemia” (IPSEN PHARMA, S.A.S., priority 2009, published 2012):
Bridge positions count the residues as written; N and C are the ends. Square brackets hold non-standard residues; d marks the D form. Ends that are not written are not given here. Bip = N[C@@H](Cc1ccc(-c2ccccc2)cc1)C(=O)O; 1Nal = N[C@@H](Cc1cccc2ccccc12)C(=O)O; 2Nal = N[C@@H](Cc1ccc2ccccc2c1)C(=O)O; d2Nal = N[C@H](Cc1ccc2ccccc2c1)C(=O)O; Bta = N[C@@H](Cc1csc2ccccc12)C(=O)O; hArg = N=C(N)NCCCC[C@H](N)C(=O)O; Pen = CC(C)(S)[C@H](N)C(=O)O; Nle = CCCC[C@H](N)C(=O)O; Ahx = NCCCCCC(=O)O; GABA = NCCCC(=O)O; βAla = NCCC(=O)O

How the values were obtained:
[1] = target: human melanocortin receptor subtype 4 (hMC4-R) (human), P32245; assay: [125I]-NDP-α-MSH competition, membranes
[2] = target: human melanocortin receptor subtype 5 (hMC5-R) (human), P33032; assay: [125I]-NDP-α-MSH competition, membranes
[3] = target: human melanocortin receptor subtype 1 (hMC1-R) (human), Q01726; assay: [125I]-NDP-α-MSH competition, membranes
[4] = target: human melanocortin receptor subtype 3 (hMC3-R) (human), P41968; assay: [125I]-NDP-α-MSH competition, membranes
hMC1-R (human) [5] = target: hMC1-R (human) (UniProt Q01726); assay: competition with [125I]-NDP-α-MSH, CHO-K1 membranes
hMC5-R (human) [6] = target: hMC5-R (human) (UniProt P33032); assay: as above
hMC4-R (human) [7] = target: hMC4-R (human) (UniProt P32245); assay: as above
hMC3-R (human) [8] = target: hMC3-R (human) (UniProt P41968); assay: as above
hMC1-R (human) [9] = target: hMC1-R (human) (UniProt Q01726); assay: ratio Ki hMC1-R / Ki hMC4-R, same assay
hMC1-R (human) [10] = target: hMC1-R (human) (UniProt Q01726); assay: cell-based or functional assay
hMC5-R (human) [11] = target: hMC5-R (human) (UniProt P33032); assay: cell-based or functional assay
hMC4-R (human) [12] = target: hMC4-R (human) (UniProt P32245); assay: cell-based or functional assay
hMC3-R (human) [13] = target: hMC3-R (human) (UniProt P41968); assay: cell-based or functional assay

Sequence of hMC5-R (human) (P33032 whole entry): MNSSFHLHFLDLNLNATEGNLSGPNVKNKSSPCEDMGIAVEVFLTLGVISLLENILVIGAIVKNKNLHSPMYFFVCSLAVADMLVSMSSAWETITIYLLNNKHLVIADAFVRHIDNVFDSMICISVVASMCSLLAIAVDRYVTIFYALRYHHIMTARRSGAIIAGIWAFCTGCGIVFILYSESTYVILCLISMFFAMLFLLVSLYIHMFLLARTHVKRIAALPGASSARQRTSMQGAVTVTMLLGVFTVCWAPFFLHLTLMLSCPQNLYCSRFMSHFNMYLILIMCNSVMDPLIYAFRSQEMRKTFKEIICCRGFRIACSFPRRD
Sequence of human melanocortin receptor subtype 5 (hMC5-R) (human), P33032 (P33032 whole entry): as above
Sequence of human melanocortin receptor subtype 3 (hMC3-R) (human), P41968 (P41968 whole entry): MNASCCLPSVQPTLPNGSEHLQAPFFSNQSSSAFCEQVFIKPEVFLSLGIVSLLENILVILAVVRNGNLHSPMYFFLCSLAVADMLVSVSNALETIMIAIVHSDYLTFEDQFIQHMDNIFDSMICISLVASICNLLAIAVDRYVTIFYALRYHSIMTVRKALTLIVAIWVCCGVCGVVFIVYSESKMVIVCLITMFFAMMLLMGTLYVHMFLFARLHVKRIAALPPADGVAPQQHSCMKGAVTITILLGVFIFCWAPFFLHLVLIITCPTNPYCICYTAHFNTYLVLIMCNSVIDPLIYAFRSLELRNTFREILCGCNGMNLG
Sequence of hMC3-R (human) (P41968 whole entry): as above
Sequence of hMC1-R (human) (Q01726 whole entry): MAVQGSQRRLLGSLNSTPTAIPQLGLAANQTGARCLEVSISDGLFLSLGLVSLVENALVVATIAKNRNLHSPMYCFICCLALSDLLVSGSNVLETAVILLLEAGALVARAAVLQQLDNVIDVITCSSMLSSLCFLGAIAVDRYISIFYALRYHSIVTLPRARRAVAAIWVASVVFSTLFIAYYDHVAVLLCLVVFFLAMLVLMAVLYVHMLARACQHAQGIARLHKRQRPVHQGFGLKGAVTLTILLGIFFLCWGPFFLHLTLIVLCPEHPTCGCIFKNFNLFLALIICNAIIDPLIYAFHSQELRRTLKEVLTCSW
Sequence of human melanocortin receptor subtype 1 (hMC1-R) (human), Q01726 (Q01726 whole entry): as above
Sequence of human melanocortin receptor subtype 4 (hMC4-R) (human), P32245 (P32245 whole entry): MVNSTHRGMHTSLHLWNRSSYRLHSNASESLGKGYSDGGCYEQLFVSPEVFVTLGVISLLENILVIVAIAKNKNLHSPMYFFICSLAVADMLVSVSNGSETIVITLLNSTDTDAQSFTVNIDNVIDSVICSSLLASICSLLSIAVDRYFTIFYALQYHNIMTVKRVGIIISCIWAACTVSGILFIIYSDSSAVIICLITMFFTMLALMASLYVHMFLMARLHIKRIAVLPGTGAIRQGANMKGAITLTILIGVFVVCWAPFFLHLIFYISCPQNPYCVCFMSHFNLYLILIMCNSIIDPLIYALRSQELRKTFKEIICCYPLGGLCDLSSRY
Sequence of hMC4-R (human) (P32245 whole entry): as above

Binder | Ki [1] | Ki [2] | Ki [3] | Ki [4] | Ki (hMC1-R (human) [5]) | Ki (hMC5-R (human) [6]) | Ki (hMC4-R (human) [7]) | Ki (hMC3-R (human) [8]) | Ki hMC1-R/MC4-R (hMC1-R (human) [9]) | cAMP EC50 (hMC1-R (human) [10]) | cAMP EC50 (hMC5-R (human) [11]) | cAMP Kb (hMC4-R (human) [12]) | cAMP Kb (hMC3-R (human) [13])
Ac-CEH[d2Nal]R[1Nal]ACPPKD-NH2 (disulfide 1-8; SMILES CC(=O)N[C@H]1CSSC[C@@H](C(=O)N2CCC[C@H]2C(=O)N2CCC[C@H]2C(=O)N[C@@H](CCCCN)C(=O)N[C@@H](CC(=O)O)C(N)=O)NC(=O)[C@H](C)NC(=O)[C@H](Cc2cccc3ccccc23)NC(=O)[C@H](CCCNC(=N)N)NC(=O)[C@@H](Cc2ccc3ccccc3c2)NC(=O)[C@H](Cc2c[nH]cn2)NC(=O)[C@H](CCC(=O)O)NC1=O) [Ac-c(Cys-Glu-His-D-2-Nal-Arg-1-Nal-Ala-Cys)-Pro-Pro-Lys-Asp-NH2] | 1.11 nM | 348 nM | 124 nM | 17.8 nM |  |  |  |  |  |  |  |  | 
Ac-[Nle]CH[d2Nal]RW[Ahx]C-NH2 (disulfide 2-8) [Ac-Nle-c(Cys-His-D-2-Nal-Arg-Trp-Ahx-Cys)-NH2] |  |  |  |  | 0.333 nM | 0.366 nM | 0.998 nM | 2.91 nM | 0.33 | 0.581 nM | 0.126 nM | 0.967 nM | 10.8 nM
Ac-[Nle]C[dA]H[dF]RW[dA]C-NH2 (disulfide 2-9; SMILES CCCC[C@H](NC(C)=O)C(=O)N[C@H]1CSSC[C@@H](C(N)=O)NC(=O)[C@@H](C)NC(=O)[C@H](Cc2c[nH]c3ccccc23)NC(=O)[C@H](CCCNC(=N)N)NC(=O)[C@@H](Cc2ccccc2)NC(=O)[C@H](Cc2c[nH]cn2)NC(=O)[C@@H](C)NC1=O) [Ac-Nle-c(Cys-D-Ala-His-D-Phe-Arg-Trp-D-Ala-Cys)-NH2] |  |  |  |  | 3.93 nM | 4940 nM | 48 nM | 876 nM | 0.08 |  |  |  | 
Ac-[Nle][Pen]H[dF]RW[GABA]C-NH2 (disulfide 2-8; SMILES CCCC[C@H](NC(C)=O)C(=O)N[C@@H]1C(=O)N[C@@H](Cc2c[nH]cn2)C(=O)N[C@H](Cc2ccccc2)C(=O)N[C@@H](CCCNC(=N)N)C(=O)N[C@@H](Cc2c[nH]c3ccccc23)C(=O)NCCCC(=O)N[C@H](C(N)=O)CSSC1(C)C) [Ac-Nle-c(Pen-His-D-Phe-Arg-Trp-Gaba-Cys)-NH2] |  |  |  |  | 0.537 nM | 2.56 nM | 5.89 nM | 86.1 nM | 0.09 |  |  |  | 
Ac-[Nle]C[dA]H[d2Nal]R[2Nal]C-NH2 (disulfide 2-8; SMILES CCCC[C@H](NC(C)=O)C(=O)N[C@H]1CSSC[C@@H](C(N)=O)NC(=O)[C@H](Cc2ccc3ccccc3c2)NC(=O)[C@H](CCCNC(=N)N)NC(=O)[C@@H](Cc2ccc3ccccc3c2)NC(=O)[C@H](Cc2c[nH]cn2)NC(=O)[C@@H](C)NC1=O) [Ac-Nle-c(Cys-D-Ala-His-D-2-Nal-Arg-2-Nal-Cys)-NH2] |  |  |  |  | 32.5 nM | 94.6 nM | 2.53 nM | 5.85 nM | 12.8 |  |  |  | 
Ac-[Nle]C[dA]H[d2Nal]R[1Nal]C-NH2 (disulfide 2-8; SMILES CCCC[C@H](NC(C)=O)C(=O)N[C@H]1CSSC[C@@H](C(N)=O)NC(=O)[C@H](Cc2cccc3ccccc23)NC(=O)[C@H](CCCNC(=N)N)NC(=O)[C@@H](Cc2ccc3ccccc3c2)NC(=O)[C@H](Cc2c[nH]cn2)NC(=O)[C@@H](C)NC1=O) [Ac-Nle-c(Cys-D-Ala-His-D-2-Nal-Arg-1-Nal-Cys)-NH2] |  |  |  |  | 114 nM | 1660 nM | 3.07 nM | 63.9 nM | 37.1 | 383 nM | 2840 nM | 53.6 nM | 61.5 nM
Ac-[Nle]CH[d2Nal]RW[GABA]C-NH2 (disulfide 2-8) [Ac-Nle-c(Cys-His-D-2-Nal-Arg-Trp-Gaba-Cys)-NH2] |  |  |  |  | 0.393 nM | 1.11 nM | 0.375 nM | 1.86 nM | 1.05 | 0.231 nM | 0.153 nM | 0.782 nM | 18.4 nM

More lines, now with the values ahead:

Ki [1] | Ki [2] | Ki [3] | Ki [4] | Ki (hMC1-R (human) [5]) | Ki (hMC5-R (human) [6]) | Ki (hMC4-R (human) [7]) | Ki (hMC3-R (human) [8]) | Ki hMC1-R/MC4-R (hMC1-R (human) [9]) | cAMP EC50 (hMC1-R (human) [10]) | cAMP EC50 (hMC5-R (human) [11]) | cAMP Kb (hMC4-R (human) [12]) | cAMP Kb (hMC3-R (human) [13]) | Binder
 |  |  |  | 5.8 nM | 1130 nM | 583 nM | 3370 nM | 0.01 |  |  |  |  | [dF]CH[dF]R[Bip][βAla][dC]T-NH2 (disulfide 2-8; N-terminus assumed; SMILES C[C@@H](O)[C@H](NC(=O)[C@H]1CSSC[C@H](NC(=O)[C@H](N)Cc2ccccc2)C(=O)N[C@@H](Cc2c[nH]cn2)C(=O)N[C@H](Cc2ccccc2)C(=O)N[C@@H](CCCNC(=N)N)C(=O)N[C@@H](Cc2ccc(-c3ccccc3)cc2)C(=O)NCCC(=O)N1)C(N)=O) [D-Phe-c(Cys-His-D-Phe-Arg-Bip-β-Ala-D-Cys)-Thr-NH2]
 |  |  |  | 0.128 nM | 38 nM | 36.9 nM | 85.6 nM | 0 |  |  |  |  | [dF]CH[d(Et)Tyr][hArg][Bip][βAla][dC]T-NH2 (disulfide 2-8) [D-Phe-c(Cys-His-D-(Et)Tyr-hArg-Bip-β-Ala-D-Cys)-Thr-NH2]
 |  |  |  | 1.68 nM | 1220 nM | 172 nM | 1260 nM | 0.01 |  |  |  |  | [dF]CH[dF][hArg][Bip][βAla][dC]T-NH2 (disulfide 2-8; N-terminus assumed; SMILES C[C@@H](O)[C@H](NC(=O)[C@H]1CSSC[C@H](NC(=O)[C@H](N)Cc2ccccc2)C(=O)N[C@@H](Cc2c[nH]cn2)C(=O)N[C@H](Cc2ccccc2)C(=O)N[C@@H](CCCCNC(=N)N)C(=O)N[C@@H](Cc2ccc(-c3ccccc3)cc2)C(=O)NCCC(=O)N1)C(N)=O) [D-Phe-c(Cys-His-D-Phe-hArg-Bip-β-Ala-D-Cys)-Thr-NH2]
1.2 nM | 359 nM | 87.8 nM | 9.08 nM |  |  |  |  |  |  |  |  |  | Ac-CEH[d2Nal]R[2Nal]ACPPKD-NH2 (disulfide 1-8; SMILES CC(=O)N[C@H]1CSSC[C@@H](C(=O)N2CCC[C@H]2C(=O)N2CCC[C@H]2C(=O)N[C@@H](CCCCN)C(=O)N[C@@H](CC(=O)O)C(N)=O)NC(=O)[C@H](C)NC(=O)[C@H](Cc2ccc3ccccc3c2)NC(=O)[C@H](CCCNC(=N)N)NC(=O)[C@@H](Cc2ccc3ccccc3c2)NC(=O)[C@H](Cc2c[nH]cn2)NC(=O)[C@H](CCC(=O)O)NC1=O) [Ac-c(Cys-Glu-His-D-2-Nal-Arg-2-Nal-Ala-Cys)-Pro-Pro-Lys-Asp-NH2]
 |  |  |  | 0.42 nM | 1260 nM | 4.75 nM | 106 nM | 0.09 |  |  |  |  | [dF]CH[dF]RW[GABA][dC]T-NH2 (disulfide 2-8; N-terminus assumed; SMILES C[C@@H](O)[C@H](NC(=O)[C@H]1CSSC[C@H](NC(=O)[C@H](N)Cc2ccccc2)C(=O)N[C@@H](Cc2c[nH]cn2)C(=O)N[C@H](Cc2ccccc2)C(=O)N[C@@H](CCCNC(=N)N)C(=O)N[C@@H](Cc2c[nH]c3ccccc23)C(=O)NCCCC(=O)N1)C(N)=O) [D-Phe-c(Cys-His-D-Phe-Arg-Trp-Gaba-D-Cys)-Thr-NH2]
8.32 nM | 50 nM | 20.9 nM | 69.7 nM |  |  |  |  |  |  |  |  |  | GGC[dA]H[dF]RWC-NH2 (disulfide 3-9; also: hydantoin ring from C(O) with Gly1-Gly2) [Hydantoin(C(O)-(Gly-Gly))-c(Cys-D-Ala-His-D-Phe-Arg-Trp-Cys)-NH2]
0.586 nM | 844 nM | 163 nM | 23 nM |  |  |  |  |  |  |  |  |  | Ac-CEH[d2Nal]R[Bta]ACPPKD-NH2 (disulfide 1-8; SMILES CC(=O)N[C@H]1CSSC[C@@H](C(=O)N2CCC[C@H]2C(=O)N2CCC[C@H]2C(=O)N[C@@H](CCCCN)C(=O)N[C@@H](CC(=O)O)C(N)=O)NC(=O)[C@H](C)NC(=O)[C@H](Cc2csc3ccccc23)NC(=O)[C@H](CCCNC(=N)N)NC(=O)[C@@H](Cc2ccc3ccccc3c2)NC(=O)[C@H](Cc2c[nH]cn2)NC(=O)[C@H](CCC(=O)O)NC1=O) [Ac-c(Cys-Glu-His-D-2-Nal-Arg-Bal-Ala-Cys)-Pro-Pro-Lys-Asp-NH2]
 |  |  |  | 0.05 nM | 2.9 nM | 1.1 nM | 9.3 nM | 0 |  |  |  |  | [dF]CH[d(Et)Tyr]RW[βAla][dC]T-NH2 (disulfide 2-8) [D-Phe-c(Cys-His-D-(Et)Tyr-Arg-Trp-β-Ala-D-Cys)-Thr-NH2]
5.73 nM | 18.9 nM | 13.9 nM | 38.4 nM |  |  |  |  |  |  |  |  |  | AGC[dA]H[dF]RWC-NH2 (disulfide 3-9; also: hydantoin ring: C(O) bridging Ala-Gly) [Hydantoin(C(O)-(Ala-Gly))-c(Cys-D-Ala-His-D-Phe-Arg-Trp-Cys)-NH2]
 |  |  |  | 0.207 nM | 344 nM | 2.58 nM | 43.2 nM | 0.08 |  |  |  |  | [dF]CH[dF]RW[βAla][dC]T-NH2 (disulfide 2-8; N-terminus assumed; SMILES C[C@@H](O)[C@H](NC(=O)[C@H]1CSSC[C@H](NC(=O)[C@H](N)Cc2ccccc2)C(=O)N[C@@H](Cc2c[nH]cn2)C(=O)N[C@H](Cc2ccccc2)C(=O)N[C@@H](CCCNC(=N)N)C(=O)N[C@@H](Cc2c[nH]c3ccccc23)C(=O)NCCC(=O)N1)C(N)=O) [D-Phe-c(Cys-His-D-Phe-Arg-Trp-β-Ala-D-Cys)-Thr-NH2]
6.7 nM | 21.3 nM | 7.92 nM | 46.4 nM |  |  |  |  |  |  |  |  |  | [Nle]GC[dA]H[dF]RWC-NH2 (disulfide 3-9; also: N-terminal hydantoin: C(O) bridges X1 N-terminal N and G2 backbone N, bridge at N via C(O), other end not in the chain) [Hydantoin(C(O)-(Nle-Gly))-c(Cys-D-Ala-His-D-Phe-Arg-Trp-Cys)-NH2]
